Experimental data from IntAct's records for PubMed 18511562.

B1: Charged multivesicular body protein 4a (Homo sapiens), Q9BY43 (parent)
chain: MSGLGRLFGKGKKEKGPTPEEAIQKLKETEKILIKKQEFLEQKIQQELQTAKKYGTKNKRAALQALRRKKRFEQQLAQTDGTLSTLEFQREAIENATTNAEVLRTMELAAQSMKKAYQDMDIDKVDELMTDITEQQEVAQQISDAISRPMGFGDDVDEDELLEELEELEQEELAQELLNVGDKEEEPSVKLPSVPSTHLPAGPAPKVDEDEEALKQLAEWVS

Variants of: B1
Settings: with pdc6i_human PDCD6IP

| effect of a mutation on the interaction | Variant |
| --- | --- |
| disrupting interaction | L217A |
| disrupting interaction | L214A |
| disrupting interaction | W220A |
